These results are taken from patent US20250270287A1 (KEROS THERAPEUTICS, published 2025).

The target in experiment [1] is T1, Activin B (UniProt P09529 293-407).
T1 sequence (looked up): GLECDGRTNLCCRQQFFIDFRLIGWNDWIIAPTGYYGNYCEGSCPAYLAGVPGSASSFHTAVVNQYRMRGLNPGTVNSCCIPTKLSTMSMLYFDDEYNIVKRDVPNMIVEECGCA
Description: SPR (Biacore 8K), Fc protein captured on anti-human IgG, ligand injected. The procedure: (§1) The Cytiva Biacore 8k was used to measure the kinetics of the interactions between the ActRII- and chimera-Fc proteins and Activin A/Activin B/growth differentiation factor 8 (GDF-8)/GDF-11/BMP-9/BMP-10. Series S CM4 Sensor Chips were immobilized with anti-human capture antibody using the reagents and protocol in the Biacore Human Antibody Capture Kit (GE Life Sciences). Briefly, anti-human IgG was diluted to 25 μg/mL in immobilization buffer. The carboxylated surface of the sensor was activated by injecting a mixture of EDC and NHS. The anti-human IgG was injected into the activated sensor chip flow cells at 10 μL/min for a total of 7 minutes until the chip reached an immobilization level of 3000 resonance units (RU). Ethanolamine was injected to deactivate the sensor surfaces. The chip has 8 flow cells to be used for binding analysis, each with an in-line reference surface to subtract instrument noise and non-specific binding to the sensor chip. The ActRII- and chimera-Fc proteins were captured in their own flow cell to allow for a maximum analyte binding response of 20-30 RU. This was done by injecting 10-20 μL of the ActRII- and chimera-Fc proteins into the flow cells at a concentration of 2 μg/mL until 60-90 RU was captured. Ligand at a single concentration was injected at […] for 60 seconds and then allowed to dissociate under buffer flow for no less than 5 minutes. After the cycle completed, captured protein was stripped from the chip with an injection of 3 M magnesium chloride, the regeneration buffer provided with the Biacore Human Antibody Capture Kit. Each ligand was injected in a concentration series, including a buffer only 0 nM concentration to serve as a double reference for subtracting out instrument noise. The data were analyzed using the Biacore Insight Evaluation Software.
Background: Surface plasmon resonance follows binding to a sensor surface in real time, without labels.

Experiment [2] addresses T2, Activin A (UniProt P08476 311-426).
T2 sequence (looked up): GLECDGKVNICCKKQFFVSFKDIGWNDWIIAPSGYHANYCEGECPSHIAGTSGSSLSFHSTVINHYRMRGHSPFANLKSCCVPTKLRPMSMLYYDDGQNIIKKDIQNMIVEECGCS
The experiment is described as above. The procedure: as §1

Experiment [3] deals with T3, GDF-11 (UniProt O95390 299-407).
T3 sequence (looked up): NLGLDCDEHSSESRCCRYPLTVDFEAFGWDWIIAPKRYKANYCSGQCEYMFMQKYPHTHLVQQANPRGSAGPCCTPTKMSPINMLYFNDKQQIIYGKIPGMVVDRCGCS
Description: cell-based or functional assay.

Experiment [4] concerns the target T1, Activin B. Description: cell-based or functional assay.
In experiment [5] the target is T2, Activin A. Briefly: cell-based or functional assay.
Experiment [6] addresses T4, BMP-9 (UniProt Q9UK05 320-429).
T4 sequence (looked up): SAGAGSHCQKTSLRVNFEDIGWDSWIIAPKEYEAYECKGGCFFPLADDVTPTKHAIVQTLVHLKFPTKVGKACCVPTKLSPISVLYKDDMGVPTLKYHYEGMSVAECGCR
Description: cell-based or functional assay.

The target in experiment [7] is T5, growth differentiation factor 8 (GDF-8) (UniProt O14793 267-375).
T5 construct: also called myostatin
T5 sequence (looked up): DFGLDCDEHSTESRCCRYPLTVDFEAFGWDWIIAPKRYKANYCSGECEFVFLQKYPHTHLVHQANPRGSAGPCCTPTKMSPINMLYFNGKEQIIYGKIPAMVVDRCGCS
Briefly: SPR (Biacore 8K), Fc protein captured on anti-human IgG, ligand injected. The procedure:
as §1

The target of experiment [8] is T3, GDF-11. The experiment is described as above. As to the method: as §1
Another experiment deals with T6, BMP-10 (UniProt O95393 317-424).
T6 sequence (looked up): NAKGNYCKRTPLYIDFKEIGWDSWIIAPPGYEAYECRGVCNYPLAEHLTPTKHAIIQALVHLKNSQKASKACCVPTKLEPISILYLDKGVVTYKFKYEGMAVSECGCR
Described as above. As to the method: as §1

In experiment [9] the target is T4, BMP-9. The experiment is described as above. The procedure: as §1

B1: ActRIIB (SEQ ID NO: 31) Fc protein (Fc fusion)
chain: GRGEAETRECIYYNANWELERTNQSGLERCEGEQDKRLHCYASWRNSSGTIELVKKGCWLDDFNCYDRQECVATEENPQVYFCCCEGNFCNERFTHLPEAGGPEVTYEPPPTAPT
notes: also called ActRII-Fc; wild-type extracellular ActRIIB; not shown: linker (if any) and Fc domain
In general, Kd refers to the free concentration of one partner at which half of the binding sites on the other are occupied at equilibrium, for simple one-to-one binding. Read a low Kd as tighter binding. For B1, the Kd in the experiment with Activin B [1] is less than 0.001 nM; with Activin A [2] it was 0.0106 nM.

B2: ActRIIB-A2 (SEQ ID NO: 121) chimera-Fc protein (Fc fusion)
chain: GRGEAETRECIYYNANWEKDRTNQSGLERCEGEQDKRLHCYASWRNSSGTIELVKKGCWLDDFNCYDRQECVATEENPQVYFCCCEGNFCNERFTHLPEAGGPEVTYEPPPTAPT
notes: Tested as chimera-Fc protein; not shown: linker (if any) and Fc domain
Regarding B2, the entries for the “IC50, SBE-luciferase reporter in HEK293 cells” value (“IC50, SBE-luciferase reporter” for short) with GDF-11 [3], with Activin B [4] and with Activin A [5] were 0.3 µg/mL, 0.13 µg/mL and 0.078 µg/mL, respectively. In the experiment with BMP-9 [6], the “IC50, BRE-luciferase reporter in C2C12 cells” value (“IC50, BRE-luciferase reporter” for short) was found to be 0.082 µg/mL. Moreover, the Kd is 0.0393 nM in [7]; less than 0.001 nM in the experiment with GDF-11 [8]; 0.00878 nM in the experiment with Activin B [1]; 0.0347 nM with Activin A [2]; 0.0298 nM with BMP-10; 0.0166 nM in the experiment with BMP-9 [9].

B3: ActRIIB-B1B4 (SEQ ID NO: 117) chimera-Fc protein (Fc fusion)
chain: GRGEAETRECLFFNANWELERTNQSGLERCEGEQDKRLHCYASWRNSSGSIEIVKQGCWLDDFNCYDRQECVATEENPQVYFCCCEGNFCNERFTHLPEAGGPEVTYEPPPTAPT
notes: as for B2
Turning to B3, the entries for the “IC50, SBE-luciferase reporter” value in the experiment with GDF-11 [3], in the experiment with Activin B [4] and in the experiment with Activin A [5] were 0.77 µg/mL, 0.34 µg/mL and 0.35 µg/mL, respectively. Also, the “IC50, BRE-luciferase reporter” value with BMP-9 [6] came to 0.39 µg/mL. Also, the Kd in experiment [7] was 0.0718 nM; with GDF-11 [8], 0.0292 nM; with Activin B [1], 0.0702 nM; with Activin A [2], 0.0108 nM; with BMP-10 it was 0.0761 nM; with BMP-9 [9] it was 0.0398 nM.

B4: ActRIIB-A7 (SEQ ID NO: 125) chimera-Fc protein (Fc fusion)
chain: GRGEAETRECIYYNANWELERTNQSGLERCEGEQDKRLHCYASWRNSSGTIELVKKGCWLDDFNCYDRQECVATEENPQVYFCCCEGNMCNERFTHLPEAGGPEVTYEPPPTAPT
notes: as for B2
For the molecule B4, the “IC50, SBE-luciferase reporter” value in the experiment with GDF-11 [3] came to 0.13 µg/mL; with Activin B [4] it was 0.073 µg/mL; with Activin A [5] it was 0.057 µg/mL. For the same molecule, in the experiment with BMP-9 [6], the “IC50, BRE-luciferase reporter” value stood at 0.061 µg/mL. Further, the Kd in [7] is less than 0.001 nM; with GDF-11 [8], less than 0.001 nM; with Activin B [1], less than 0.001 nM; in the experiment with Activin A [2] it was 0.0169 nM; in the experiment with BMP-10, 0.00872 nM; with BMP-9 [9] it was 0.0191 nM.

B5: ActRIIB-B3 (SEQ ID NO: 112) chimera-Fc protein (Fc fusion)
chain: GRGEAETRECIYYNANWELERTNQSGLERCEGEQDKRRHCFATWKNISGTIELVKKGCWLDDFNCYDRQECVATEENPQVYFCCCEGNFCNERFTHLPEAGGPEVTYEPPPTAPT
notes: as for B2
Turning to B5, the “IC50, SBE-luciferase reporter” value with GDF-11 [3] turned out to be 0.14 µg/mL; with Activin B [4], 0.096 µg/mL; with Activin A [5] it was 0.07 µg/mL. Also, in the experiment with BMP-9 [6], the “IC50, BRE-luciferase reporter” value turned out to be 0.41 µg/mL. The Kd in experiment [7] was found to be 0.0104 nM; with GDF-11 [8], 0.00117 nM; in the experiment with Activin B [1], 0.00581 nM; with Activin A [2] it was 0.00152 nM; with BMP-10 it was 0.175 nM; with BMP-9 [9], 0.361 nM.
